Measurements published in patent publication US20260049134A1 (UNIVERSITY OF FLORIDA RESEARCH FOUNDATION, published 2026).

T1: IGSF11 (VSIG3)
T1 construct: coated protein in the ELISA; also called IGSF11-Fc (R&D Systems)
T1 chain: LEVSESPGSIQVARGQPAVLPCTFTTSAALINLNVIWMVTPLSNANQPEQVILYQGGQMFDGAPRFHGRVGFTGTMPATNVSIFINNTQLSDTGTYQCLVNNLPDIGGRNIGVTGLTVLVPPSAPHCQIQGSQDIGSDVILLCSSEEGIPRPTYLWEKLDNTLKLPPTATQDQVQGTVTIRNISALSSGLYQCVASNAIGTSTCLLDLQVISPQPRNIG

T2: SELL (L-Selectin)
T2 construct: coated protein in the ELISA; also called SELL-Fc-His (R&D Systems)
T2 chain: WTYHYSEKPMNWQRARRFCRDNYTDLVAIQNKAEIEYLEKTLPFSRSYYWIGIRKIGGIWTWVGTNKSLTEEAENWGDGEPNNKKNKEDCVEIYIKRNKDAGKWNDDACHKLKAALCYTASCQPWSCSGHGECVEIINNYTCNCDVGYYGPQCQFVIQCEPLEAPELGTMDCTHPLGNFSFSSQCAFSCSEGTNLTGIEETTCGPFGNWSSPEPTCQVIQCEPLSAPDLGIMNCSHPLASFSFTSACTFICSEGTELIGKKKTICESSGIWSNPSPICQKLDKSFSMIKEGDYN

T3: HHLA2 (B7-H7)
T3 construct: coated protein in the ELISA; also called HHLA2-Fc (R&D Systems)
T3 chain: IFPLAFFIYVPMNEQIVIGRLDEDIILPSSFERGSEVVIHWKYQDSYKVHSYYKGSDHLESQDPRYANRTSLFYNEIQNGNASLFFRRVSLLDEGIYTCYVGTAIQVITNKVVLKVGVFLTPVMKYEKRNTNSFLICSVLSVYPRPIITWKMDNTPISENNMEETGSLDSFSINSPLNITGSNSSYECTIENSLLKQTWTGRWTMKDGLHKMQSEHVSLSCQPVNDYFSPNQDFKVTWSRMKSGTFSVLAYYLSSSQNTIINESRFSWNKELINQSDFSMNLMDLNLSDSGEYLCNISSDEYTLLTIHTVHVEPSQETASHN

T4: DCC
T4 construct: coated protein in the ELISA; also called DCC-His (R&D Systems)
T4 chain: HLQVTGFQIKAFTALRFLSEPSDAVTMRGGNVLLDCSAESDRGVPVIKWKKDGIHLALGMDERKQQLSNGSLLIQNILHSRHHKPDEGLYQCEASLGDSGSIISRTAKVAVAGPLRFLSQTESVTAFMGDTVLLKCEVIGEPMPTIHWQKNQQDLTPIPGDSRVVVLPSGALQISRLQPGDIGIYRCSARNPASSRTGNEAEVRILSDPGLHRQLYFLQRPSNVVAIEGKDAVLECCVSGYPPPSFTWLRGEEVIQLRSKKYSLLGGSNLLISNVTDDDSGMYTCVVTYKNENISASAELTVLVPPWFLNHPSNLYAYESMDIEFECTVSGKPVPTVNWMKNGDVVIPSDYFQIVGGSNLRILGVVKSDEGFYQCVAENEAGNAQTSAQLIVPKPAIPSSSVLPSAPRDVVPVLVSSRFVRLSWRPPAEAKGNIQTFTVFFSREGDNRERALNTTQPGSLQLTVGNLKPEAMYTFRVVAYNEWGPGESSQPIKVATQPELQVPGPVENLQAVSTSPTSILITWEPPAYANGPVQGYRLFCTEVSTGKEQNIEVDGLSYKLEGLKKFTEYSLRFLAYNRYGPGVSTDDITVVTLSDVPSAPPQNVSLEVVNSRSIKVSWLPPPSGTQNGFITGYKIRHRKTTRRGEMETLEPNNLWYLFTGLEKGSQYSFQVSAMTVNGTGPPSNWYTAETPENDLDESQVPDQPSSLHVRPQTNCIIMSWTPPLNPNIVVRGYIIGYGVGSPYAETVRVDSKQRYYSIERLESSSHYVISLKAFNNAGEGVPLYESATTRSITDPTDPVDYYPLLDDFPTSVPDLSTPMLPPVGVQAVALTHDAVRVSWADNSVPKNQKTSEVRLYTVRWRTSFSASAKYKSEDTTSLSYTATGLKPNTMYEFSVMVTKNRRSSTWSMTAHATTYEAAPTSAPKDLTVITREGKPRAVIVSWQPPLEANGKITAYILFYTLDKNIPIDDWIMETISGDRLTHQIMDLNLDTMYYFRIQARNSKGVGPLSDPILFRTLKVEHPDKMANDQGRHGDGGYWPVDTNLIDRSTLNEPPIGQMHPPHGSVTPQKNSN


Legend:
PTP4A3 (PRL-3) [1] = biological target: T5, PTP4A3 (PRL-3); test: ELISA on coated His-PTP4A3, 150 ng IgG1; None 0.085
T5 construct: coated protein in the ELISA; also called His-PTP4A3 (R&D Systems)
T5 sequence (chain, as listed by the source limits assumed): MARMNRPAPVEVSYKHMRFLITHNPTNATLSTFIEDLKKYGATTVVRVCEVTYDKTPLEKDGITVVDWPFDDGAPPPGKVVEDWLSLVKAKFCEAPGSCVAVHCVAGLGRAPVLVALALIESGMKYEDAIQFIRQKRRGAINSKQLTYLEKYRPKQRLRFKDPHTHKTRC
Protocol: (§1) Recombinant purified ECDs (50-150 ng) of each putative target protein were coated, incubated with 150 ng of the indicated primary antibody, and binding was detected using a peroxidase-conjugated anti-human Fab secondary antibody. Heatmap represents averages of technical triplicates. (8B) Target validation via siRNA knockdown. H929 cells were transfected with siRNA pools targeting the putative antibody targets ICAM1, CADM1, and PTPRG. Cells were then subjected to cognate IgG binding analysis via flow cytometry. (NT, non-targeting siRNA).
(§2) ELISA ELISA was conducted as described previously. Briefly, 50-150 ng of antigen was coated overnight in half-area 96-well plates at 4° C., blocked with 3% BSA at 37° C. for 1 h, and 150 ng of chimeric rabbit/human IgG1 was added, incubating for 2 h at 37° C. […] After incubating at 37° C. for 15 min-1 h (depending on intensity of controls), data were acquired using a SpectraMax M5 plate reader (Molecular Devices).

IGSF11 (VSIG3) [2] = biological target: T1, IGSF11 (VSIG3); test: ELISA on coated IGSF11-Fc
Protocol: as §1, §2

SELL (L-Selectin) = biological target: T2, SELL (L-Selectin); test: ELISA on coated SELL-Fc-His, 150 ng IgG1; None 0.096
Protocol: as §1, §2

PTP4A3 (PRL-3) [3] = biological target: T5, PTP4A3 (PRL-3); test: ELISA on coated His-PTP4A3
Protocol: as §1, §2

HHLA2 (B7-H7) = biological target: T3, HHLA2 (B7-H7); test: ELISA on coated HHLA2-Fc
Protocol: as §1, §2

DCC [4] = biological target: T4, DCC; test: ELISA on coated DCC-His
Protocol: as §1, §2

DCC [5] = biological target: T4, DCC; test: ELISA on coated DCC-His, 150 ng IgG1; None 0.095
Protocol: as §1, §2

IGSF11 (VSIG3) [6] = biological target: T1, IGSF11 (VSIG3); test: ELISA on coated IGSF11-Fc, 150 ng IgG1; None 0.090
Protocol: as §1, §2

Row | ELISA Absorbance (405 nm-570 nm) (PTP4A3 (PRL-3) [1]) | ELISA Absorbance (405 nm-570 nm) (SELL (L-Selectin)) | ELISA Absorbance (405 nm-570 nm) (DCC [5]) | ELISA Absorbance (405 nm-570 nm) (IGSF11 (VSIG3) [6]) | Binder | binding result (IGSF11 (VSIG3) [2]) | binding result (PTP4A3 (PRL-3) [3]) | binding result (HHLA2 (B7-H7)) | binding result (DCC [4])
1 | 0.096 | 0.103 | 0.098 | 0.088 | HW-42 chimeric rabbit-human IgG1 LA/LA/PG (antibody, V domains shown, Fc-silenced (L234A/L235A/P329G) IgG1, lambda; Alexa Fluor 647-labeled in single-step flow cytometry; Cluster C-1) VH: QSVKESEGGLFKPADTLTLTCTVSGFSLSSNEISWVRQAPGEGLEYIGIIDTGGRAYYAVWARSRSTITRNTNLNTVTLKMTSLTAADTATYFCARGGVDTEWYAFSSWGPGTLVTVPS VL: SFVLTQPASVQVNLGQTVSLTCTADTLSRRYASWYQQKPGQAPVLLIFRDTSRPSGVPDRFSGSSSGDTATLTISGAQAGDEADYYCATSDGSGSNYQYVFGGGTQLTVTG | no binding (tested: 150 ng IgG1 per well) | no binding (tested: 150 ng IgG1 per well) | no binding (tested: 150 ng IgG1 per well) | no binding (tested: 150 ng IgG1 per well)
2 | 0.079 | 0.067 | 0.063 | 0.07 | HW-25 chimeric rabbit-human IgG1 LA/LA/PG (antibody, V domains shown, Fc-silenced (L234A/L235A/P329G) IgG1, lambda; Alexa Fluor 647-labeled in single-step flow cytometry; Cluster C-1) VH: QSLEESGGRLVTPGTPLTLTCTVSGFSLSSYAMGWVRQAPGKGLEWIGIIDSRGSTYYATWAKGRFTISKTSTTVDLKITSPTTEDTATYFCAREDSYYYDSFNLWGPGTLVTVSS VL: SFVLTQPASVQVNLGQTVSLTCTADTLSRRYASWYQQKPGQAPVLLIYRDTSRPSGVPDRFSGSSSGNTATLTISGAQAGDEADYYCATSDGSGSSYQCVFGGGTQLTVTG | no binding (tested: 150 ng IgG1 per well) | no binding (tested: 150 ng IgG1 per well) | no binding (tested: 150 ng IgG1 per well) | no binding (tested: 150 ng IgG1 per well)
3 | 0.092 | 0.09 | 0.086 | 0.085 | HW-70 chimeric rabbit-human IgG1 LA/LA/PG (antibody, V domains shown, Fc-silenced (L234A/L235A/P329G) IgG1, lambda; Alexa Fluor 647-labeled in single-step flow cytometry; Cluster C-1) VH: QSLEESGGRLVTPGTPLTLTCTVSGFSLSSNAMSWVRQAPGKGLEWIGTIDGYGYTYYASWAKGRFTVSKTSTTVDLKITSPTTEDTATYFCAREIYLGSNFWGPGTLVTISS VL: SFVLTQPASVQVNLGQTVSLTCTADTLSRRYASWYQQKPGQAPVLLIYRDTSRPSGVPDRFSGSSSGNTATLTISGAQAGDEADYYCATADGSGSSYQFVFGGGTQLTVTG | no binding (tested: 150 ng IgG1 per well) | no binding (tested: 150 ng IgG1 per well) | no binding (tested: 150 ng IgG1 per well) | no binding (tested: 150 ng IgG1 per well)
4 |  |  | 0.128 | 0.11 | HW-28 chimeric rabbit-human IgG1 LA/LA/PG (antibody, V domains shown, Fc-silenced (L234A/L235A/P329G) IgG1, lambda; Alexa Fluor 647-labeled in single-step flow cytometry; Cluster C-45) VH: QKQLVESGGRLVTPGTPLTLTCTASGFSLSSNAMSWVRQAPGEGLQWIGTISSGGSTYYASWAKGRFTISKTSTTVTLKMTSLTTEDTATYFCARGADLHRLWGPGTLVTVSS VL: SFVLTQPASVQVNLGQTVSLTCTGKPLSRSFASWYQQKPGQAPVLVIYRDTSRPSGVPDRFSGSSSGNTATLTISGAQAGDEADYYCATSDGSGSSYQYVFGGGTQLTVTG |  |  |  | 
5 | 0.081 | 0.078 | 0.068 | 0.074 | HW-1 chimeric rabbit-human IgG1 LA/LA/PG (antibody, V domains shown, Fc-silenced (L234A/L235A/P329G) IgG1, lambda; Alexa Fluor 647-labeled in single-step flow cytometry; Prototype of cluster C-1) VH: QSLEESGGGLFKPTDTLTLTCTASGFSLGSSYAISWVRQAPGKELEWIGTIDSGRAYYARWAKSRSTITRNTNENTVTLKMTSLTAADTATYFCARDLIPTYSQDIWGPGTLVTISS VL: SFVLTQPASVQVNLGQTVSLTCTADTLSRRYASWYQQKPGQAPVLLIYRDTSRPSGVPDRFSGSSSGNTATLTISGAQAGDEADYYCATSDGSGNSYQYVFGGGTQLTVTS | no binding (tested: 150 ng IgG1 per well) | no binding (tested: 150 ng IgG1 per well) | no binding (tested: 150 ng IgG1 per well) | no binding (tested: 150 ng IgG1 per well)
6 | 0.105 | 0.177 | 0.129 | 0.087 | HW-16 chimeric rabbit-human IgG1 LA/LA/PG (antibody, V domains shown, Fc-silenced (L234A/L235A/P329G) IgG1, kappa; Alexa Fluor 647-labeled in single-step flow cytometry; Cluster C-45) VH: QSLEESGGRLVTPGTPLTLTCTASGFSLSSYAMSWVRQAPGKGLEWIGTMPTGGGTYYASWAKGRFTISKTSTTVDLQITSPTTEDTATYFCAKHWNIWGPGTLVTISS VL: DIVLTQTPSSTSTAVGDTVTINCRASQSIGRNLAWFQQKPGQPPKLLIYRASNLASGVPSRFKGSGSRTQFTLTISGVQREDAATYYCLGSYSSSDTAFGGGTELEILR | no binding (tested: 150 ng IgG1 per well) | no binding (tested: 150 ng IgG1 per well) | no binding (tested: 150 ng IgG1 per well) | 
7 | 0.092 | 0.081 | 0.079 | 0.08 | TH9-0022 (antibody, human IgG1, kappa, L234A L235A, V domains shown, also called TH9-022; negative control) VH: QSLEESGGRLVTPGTPLTLTCTVSGFSLSSYAMNWVRQAPGKGLEWIGIINSYGSTYYASWAKGRFTISKTSTTVDLKITSPTTEDTATYFCARVTYDSYGYGYAPYGMDLWGPGTLVTVSS VL: LVMTQTPSSTSNAVGGTVTIKCQASQSIGNVLAWYQQKPGQPPKLLIYAASTLASGVPSRVGGSRSGTEYTLTISGVQREDAATYYCLGSDSDSDIAFGGGTELEILR | no binding (tested: 150 ng IgG1 per well) | no binding (tested: 150 ng IgG1 per well) | no binding (tested: 150 ng IgG1 per well) | no binding (tested: 150 ng IgG1 per well)
